# Reference: patent publication US20220064224A1 (NOVOBIND LIVESTOCK THERAPEUTICS, published 2022)
# Changes are numbered by the printed parent chain.
# B1: NBX0430 (VHH)
# VHH: QVQLQQSGGGLVQAGGSLRLSCAASGLTFGSPAMAWYRQAPGKEREWVATISRGGSTYYADSVKGRFTISRDNAKNTSYLQMNSLKPEETAVYYCAAGLSSMRYDYWGQGTQVTVSS
# B2: NBX0428 (VHH)
# VHH: QVQLQESGGGLVQAGGSLRLSCAASGSTSSINHIAWYRQAPGKQREWVATITSGGGSTYYTNSVKGRFTISRDNAKNTVYLQMNNLKPEDTAVYYCKANQAAGNKDYWGQGTQVTVSS
# B3: NBX0411 (VHH)
# VHH: QVQLQESGGGLVQPGGSLRLSCAVSGLAFGRVAMAWYRQAPGKERELVARISSGGYTNYADSAKGRFTISRDNVKNLVYLQMNSLKFDDTAVYYCNSGWSGDYWGKGTLVTVSS
# B4: NBX0421 (VHH)
# VHH: B3 VHH with E6Q, V32Y, S53N, L77T, Q81E, D102N
# B5: NBX0417 (VHH)
# VHH: QVQLQESGGGLVQPGGSLRLSCAASGSIFSINVMAWYRQAPGKEREYVASITRGGGDYYANSVKGRFTISRDNAKNAVYLQMNSLKPEDTAVYECNAQISQTISGDYRNYWGQGTQVTVSS
# B6: NBX0415 (VHH)
# VHH: QVQLQESGGGLVQAGGSLRLSCAASGRTFSSYAMGWFRQAPGKEREYVAAINRFGGTYYADFVKGRFTISRDNAKNTVYLQMNSLKPEDTAVYYCAASRILGLTTAREDYNYWGQGTQVTVSS
# B7: NBX0412 (VHH)
# VHH: B6 VHH with A24V, G55S, T104S
# B8: NBX0429 (VHH)
# VHH: B6 VHH with E6Q, R99G, T104S
# B9: NBX0431 (VHH)
# VHH: B6 VHH with E6Q, A50G, T104S
# B10: NBX0426 (VHH)
# VHH: QVQLQESGGGLVQPGGSLRLSCAASGIGDRPYVMAWHRQAPGKQRELVATITRDGYTNYADTVKGRFVVSRDNAQNTVYLQMNYLKPADTAVYYCRAYNAYLNLGYWGQGTQVTVST
# B11: NBX0414 (VHH)
# VHH: QVQLQESGGGLVQAGGSLRLSCRASGRTFSSSSMGWFRQAPGKERDFVAAISWDGASTRYADSVKGRFTISRDNAKNTVYLQMNSLKPEDTAVYYCAASTMDFIVLLTKWYPYWGQGTQVTVSS
# B12: NBX0416 (VHH)
# VHH: B11 VHH with R23A, S52N, D54S, A56D, N77S
# Molecular target: Canine Parvovirus Type 2 (CPV2) (Canine parvovirus type 2)
# Assay: cell-based or functional assay
row,Binder,Invasion reduced by >50% at 5 µM NBX
1,B1,≤ 50%
2,B2,> 50%
3,B3,> 50%
4,B4,> 50%
5,B5,≤ 50%
6,B6,≤ 50%
7,B7,≤ 50%
8,B8,≤ 50%
9,B9,≤ 50%
10,B10,> 50%
11,B11,> 50%
12,B12,≤ 50%
